# Experimental data published in the supplement of paper PMC9170038.
# System: K4 kissing-loop RNA reporter
# Test: apparent KD of K4 kissing-loop reporter; higher = weaker reporter binding
# Settings: Eterna round: R107; input ligand: arginine 13.2 mM
# Protocol: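 RNA-MaP round R107: designed RNA switches with theophylline, tryptophan, arginine or FMN aptamers are transcribed on-chip within common flanks. They are titrated with a labelled K4 kissing-loop RNA reporter in RNA-MaP buffer (100 mM Tris pH 7.5, 80 mM KCl, 4 mM MgCl2), without ligand or with the indicated ligand. Median apparent KD per design.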
# 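Further: bound reporter read as fluorescence of individual clusters on recovered sequencing chips by microscopy, with normalized cluster intensities fitted with a binding model.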
row,Sequence,apparent KD of K4 kissing-loop reporter
1,CCAUUCUGUUACGAUACCAGUCUAAUAUAUUUGAUCAAUACCCUCGCCGAGUGAUGUUCGGACCCUUGGCAGCGUCUGGGACAGG [bbybmullin],377 nM
2,GCCUUUUUUCGAGCUACAGCUCGAUUUGGUCGAGGACCGGUACGGCCGCCACUCGAAUGAUAGUGAUGUUAUCAUUAUGGCAUAA [JR_ExcTryptoA_Sub023],166 nM
3,AAGUGUCAUUAGACACACCGAUGUAUAAACUAGGAUAUGCUGAUAAGCAGAAGGAGUGAUGUUCCUUUCAUCAUCGGAAUUAAAU [#06 K4 FMN A Exclusion],161 nM
4,AACGCUGGUGAAUAACACUAGCGAAAUUCGCGAGGACCGGUACGGCCGCCACUCGCUAACUGCGAGUGAUGUUCGAUAAUAAAAU [Mat - Mod of OpenEnded 3 - D7],125 nM
5,AAGGGCGAGGUAACGUGGAUAUCUCGUCGCAAGGAUAUCUGGAAACAGAGAAGGUGCGACAUCACCGGCAGUGAUGUUGCUGGGC,185 nM
6,AAUGUACAGGGAAGGAGCGUAGUCCAGUGAUGUUGGAAUUAAAUACCAGUGAUGUUGGUUAUACAGGUAGGUCGCCCUAAAGUGC [KL-XARG-B20],72.3 nM
7,AUUUUUUUAUCAGGAUAUUAGUGAUGGUUGUUUUUGUUAGUGAUGUUGAUAUUUGUUUUAUGUAUUUAAGAAGGGAUUGAGAUGU [zbbzmullin],24.7 nM
8,UACGCCACAGACGUGGAGUACCUUGGGUCGAAGGAUAUCAGCAUUGUGAGAAGGUCGCCGAUUCUAAGUGAUGUUUAGAUCAGGG [theeternabot_sameState_KL_FMN_A_2],275 nM
9,CGAGUGAUGUUCGAAGAGUUGUUAAGCGAUACCAGCUAGGAAACUGGCCCUUGGCAGCGUAAUAAAUAAAUAAAUAAAUGAUCAC [whbob_Ex_Theo_A_th62],414 nM
10,UCGAUAGAGAGUGAUGUUCUCGUAUCAGAUACCAGUCACGCGAGUGACCCUUGGCAGCUGAUGUACAGCUGAGAGUAGUAUUCGA [Theo A Ex t8],104 nM
11,UUUCCAGAUAAGUGGGAACACUCCAUAACAGAGGAUAUCAGAGCGCUGAGAAGGCUGUUUAUCAGUGAUGUUGAUAGUGUGGAGU [FMN A SS t2a],660 nM
12,GGUGACAACCAGAGGUGAUGUAUAGAAUCGCGAGGACCGGUACGGCCGCCACUCGUGAAGAGAAAGGAGUGAUGUUCCGUAAUGG [Kazoo C6],249 nM
13,UGUACCGACUCAGGAUAUGUCGUCGAAAGACGAAAUGGAGUGAUGUUCCUUAAACUGCGAAAGCAGACAGAAGGGAGUUGGUACU [FmnBS 29 C9+G77],200 nM
14,GCUAUGGUAGGAAGGAGCGCUUAAUUACUAAUAAGAGUGAUGUUCGAUAGUAGGUAUUUGUAGCAGGUAGGUCGCCUACUAUAGC [KL-Arg B24],174 nM
15,GUAUAUCGAGUGAUGUUCGAAUGCUCCGAAGGAGCGCGGAUAAUCGCAGGUAGGUCGCGGAGCAGUUGCUGAGGAAGCUCAGUAU [Arg A SS t11],401 nM
16,AAGUCAUACAGAAGGAGCGUGUUUUAUAAUUUAUUUUCAUGAUCGAGUGAUGUUCGAUAUACACAGGUAGGUCGCUGUAUAAUAA [JR_SSArginiB_Sub007],146 nM
17,GAUCAUAGCACGGCCGCCACUGAUAUGCCGUGCUAUACGAGUGAUGUUCGUAAUUAUACGGGUAUCAGGACCGGGUGCAACGGUA [Tryp B SS t2],89.3 nM

row,Sequence,apparent KD of K4 kissing-loop reporter
1,AAGCAGUCACUCGAACCCAUCGAAGAUGGGCGAGGACCGGUACGGCCGCCACUCGGAGUGAUGUUCCGCAGACUGCAAAAUAAAA,265 nM
2,UGAUAGGACAGAAGGAGCGGUAGUGAUGUUGCCAAAAGUAUAAGGUGUCAAAAGACACCCUACCAGGUAGGUCGCUGUCCUAUCU,346 nM
3,AGCAAUAUCACGGCCGCCACUGAAUAUUGUUUUUAUAUUUAUAAAUCUUGCCAGUGAUGUUGGUUCAGGACCGGGUGAGUUAAUA [JR_SSTryptoB_Sub004],603 nM
4,CAAGCUCUCCAAGGAUAUGAUAUCGACCCGUCUUAGUGAUGUUAAGGCUGUAGAAAUUCACAUUGAUCAGAAGGUGGUACCCUCC [theeternabot_sameState_KL_FMN_B_8],194 nM
5,AAGUCAUAUAGAAGGAGCGUGUUUUUUAAUUUAUUUUCAUGAUCGAGUGAUGUUCGAUAUACACAGGUAGGUCGCUGUAUAAUAA [hbob_SS_Arginine_B_2t141],145 nM
6,UGUCAUUGGUCGGCCGCCACUUCGUAUGAAGUGAUGUUUUGUAGAUUGUGUUGAAAGGUGUGGUGAAGGACCGGGACCGAUGACU [FiskerMod 23 - Jieux - Same State - Tryptophan B],623 nM
7,GUAUCGCUAGGAGGAUAUUUCAUAUAAUAUAUAAAUGGAUAUACGGAGUGAUGUUCCGAUUUACGGAAAGAAGGCCUAGUGAUAC [FMN B 18],183 nM
8,AUUUUGUUGUCAGGAUAUUAGUAUGGUUUUGGUUUGUUAGUGAUGUUGAUGUUUUGUUUAUGUAUUUAAGAAGGGAUUUAGCGGU [aqaawgumullin],352 nM
9,ACGUCACGUAUACUGGUGGUUUCGAUCGAUACCAGUAGCGAGAGUUACCCUUGGCAGCGACAUGAGUGAUGUUUAUGUAUGAUGA [#13 K4 Theophylline A Exclusion],551 nM
10,AACUGGGUUCGUGAUACCAGCUCACACAUGAGUGAUGUUGAUGUAGUGGGCAAAAUGUGGAGCCCUUGGCAGCACUGUGACCACG [XTheo-B3],358 nM
11,CUGACGUGCGGUAGGUUCAAGUGCUGGGAAGGAGCGCAGAUGACUGCAGGUAGGUCGCCCAGUGAUGUUGGGCUUUCCACCUACG [Quinbe],180 nM
12,AAUGUACAAGUGAUGUUUGUACUUUCCGAAGGAGCGUCAAAUAAGACAGGUAGGUCGCGGAUACUCUAAAUAAUCAGGUCAUUAA [JR_ExcArginiA_Sub019],88 nM
13,AAAUAAAAGGCGGCCGCCACUGAACGCCUCCGCGUGGGUAUAUAGUGAUGUUAUAUGGCCGCCUUCAGGACCGGGCCAAAUAAAA [AstrosSSTryB#1],220 nM
14,GGAGAGGUCUUGUUUGGAUGUGUUUAAUGGCGAGGACCGGUACGGCCGCCACUCGGGUGAUGUUAGUGAUGUUGAUGUAGUGAUG [wzwmullin],76.1 nM
15,GGAUAGGAUAGAGGAUAUGGCUUACGCAGAAAUAACUUGUUGUGUUUAUCCAUAGGGAGUGAUGUUCCAGAAGGCUGUCCUAUCG [MatMod 18 - Jieux - Exclusion - FMN B],204 nM
16,UUAUCUAUAUUCGAUACCAGUACCCUUUGUGUUAAUCCUUUUAUCAGUGAUGUUGAUGUGUACCCUUGGCAGCGGGUAUGGGUUU [KL-XTheo-B15],388 nM

# Same assay, conditions: Eterna round: R107; input ligand: none
row,Sequence,apparent KD of K4 kissing-loop reporter
1,AGCGGCCAGUCGGCCGCCACUCCGGGCAGUGAUGUUGCGAAGUGUCUACUAGAGUGAUGUUCUAAGAGGACCGGGACUGACGUAU [Exclusion Tryptophan B Gf 11],534 nM
2,AUUUAAUUAACUGAUACCAGACUUUAUGUAUUUAUUAAAACUAGUGAUGUUAGUUUAUCUGUCCCUUGGCAGCAGUUUCUACUUA [JR_Nu_ExcTheophyB_Sub021],105 nM
3,UCCACGCUUCGAGGAUAUCGGAUUAGAGUGAUGUUCUAAAGACGCCCAGUGAUGUUGGAUGCGAUACGAGAAGGCGGUGGCGUGU [Same State FMN B GF6],244 nM
4,UUUUUGGAGAAUUAUAGUGAUGUUAUGAAGGAGGAUAUCUGGAGAUGGAGAAGGCCUAGUGGCUCAGCCCUCGCGGGUGGGUGGG [ExFMNA.aD],456 nM
5,UUUUAUAACCGAAGGAGCGCGUGGGCGCAGUGAUGUUGCGCCCGACAUCACUUCAACUUAACGCAGGUAGGUCGCGGUUUUAAUG [Arginine B (Excl) V3],181 nM
6,AGAUUCGACACGGCCGCCACUCGUGGUGGAUUACCUAGUGUCGAAGUUGAGUGAUGUUCAAGUACGAGGACCGGGUGUUGAGUCU [KL-XTryp-B8 #analogue],370 nM
7,UCGAUCGCUAGUGAUGUUGGUGUGCUACAUCGAGGACCGGUACGGCCGCCACUCGAGCCCGAGUAGAAGGGUGGGCUGCUAUGAA [theeternabot_sameState_KL_Trp_A_18],1190 nM
8,AAAUAAAGCAGUCACCCAGUGAUGUUGGAAGGAGCGUGCGAAAGCACAGGUAGGUCGCCGAUAGGACAAAGUCCAAGUGGCUGCA [#SwitchBubble 30 #K4Early],487 nM
9,UUUGUAGUGGGAGGAUAUCCUAAUAUGGGUGAUGUUAGCGAUGUUGAAGGUGUAGUGAUGUUAUGCGGAGAAGGCCCACUGUAGA [BDazzled - #20 - Exc. FMN B],189 nM
10,AAAGGCAAAGCCCGAGUGAUGUUCGACGAUACCAGCCUCGAUAGAGGCCCUUGGCAGCGUAAAUGAUCAUGAAGCCAAGGAAUAA [whbob_Ex_Theo_A_th67],352 nM
11,AAAGGAUCAGAGAGUGAUGUUCUCUAAUAACGAGGACCGGUACGGCCGCCACUCGAAUAGAUCCAAGUCCUACGAAAAGUAGGAC [Omei inspired 8],316 nM
12,CCAUUCUGUUACGAUACCAGUCUAAUAUAUUUGAUCAAUACCCUCGCCGAGUGAUGUUCGGACCCUUGGCAGCGUCUGGGACAGG [bbybmullin],410 nM
13,GCCUUUUUUCGAGCUACAGCUCGAUUUGGUCGAGGACCGGUACGGCCGCCACUCGAAUGAUAGUGAUGUUAUCAUUAUGGCAUAA [JR_ExcTryptoA_Sub023],176 nM
14,AAGUGUCAUUAGACACACCGAUGUAUAAACUAGGAUAUGCUGAUAAGCAGAAGGAGUGAUGUUCCUUUCAUCAUCGGAAUUAAAU [#06 K4 FMN A Exclusion],160 nM
15,AACGCUGGUGAAUAACACUAGCGAAAUUCGCGAGGACCGGUACGGCCGCCACUCGCUAACUGCGAGUGAUGUUCGAUAAUAAAAU [Mat - Mod of OpenEnded 3 - D7],197 nM
16,AAGGGCGAGGUAACGUGGAUAUCUCGUCGCAAGGAUAUCUGGAAACAGAGAAGGUGCGACAUCACCGGCAGUGAUGUUGCUGGGC,233 nM
17,AAUGUACAGGGAAGGAGCGUAGUCCAGUGAUGUUGGAAUUAAAUACCAGUGAUGUUGGUUAUACAGGUAGGUCGCCCUAAAGUGC [KL-XARG-B20],81.9 nM
18,AUUUUUUUAUCAGGAUAUUAGUGAUGGUUGUUUUUGUUAGUGAUGUUGAUAUUUGUUUUAUGUAUUUAAGAAGGGAUUGAGAUGU [zbbzmullin],42.9 nM
19,UACGCCACAGACGUGGAGUACCUUGGGUCGAAGGAUAUCAGCAUUGUGAGAAGGUCGCCGAUUCUAAGUGAUGUUUAGAUCAGGG [theeternabot_sameState_KL_FMN_A_2],446 nM
20,CGAGUGAUGUUCGAAGAGUUGUUAAGCGAUACCAGCUAGGAAACUGGCCCUUGGCAGCGUAAUAAAUAAAUAAAUAAAUGAUCAC [whbob_Ex_Theo_A_th62],369 nM
21,UCGAUAGAGAGUGAUGUUCUCGUAUCAGAUACCAGUCACGCGAGUGACCCUUGGCAGCUGAUGUACAGCUGAGAGUAGUAUUCGA [Theo A Ex t8],90.5 nM
22,UUUCCAGAUAAGUGGGAACACUCCAUAACAGAGGAUAUCAGAGCGCUGAGAAGGCUGUUUAUCAGUGAUGUUGAUAGUGUGGAGU [FMN A SS t2a],671 nM
